Laboratory results published in article PMC6517591.
pKd: −log10 of the molar value.

Biological target: Human FcRn (neonatal Fc-receptor), C-terminally biotinylated (human) (UniProt P55899)
Assay: SPR; pH 6.0

| Substance | pKd |
| --- | --- |
| GDob1 IgG1 (from UniProt P01857) | 7.63 |
| GDob1 IgG1ΔG236 (from UniProt P01857) | 7.60 |
| GDob1 IgG2 (from UniProt P01859) | 7.41 |
| GDob1 IgG2 + G236 (from UniProt P01859) | 7.38 |
